T1: human TIGIT (soluble, SPR; construct not stated) (human, UniProt Q495A1 22-141, limits assumed)
T1 construct: whole entry named; also called huTIGIT
T1 sequence: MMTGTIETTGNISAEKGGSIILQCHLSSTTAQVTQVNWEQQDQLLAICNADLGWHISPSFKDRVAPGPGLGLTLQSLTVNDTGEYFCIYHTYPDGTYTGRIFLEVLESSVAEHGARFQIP

T2: recombinant human TIGIT (rhTIGIT/Fc) (human, UniProt Q495A1 22-141)
T2 construct: also called TIGIT antigen (rhTIGIT/Fc); not shown: Fc part
T2 sequence: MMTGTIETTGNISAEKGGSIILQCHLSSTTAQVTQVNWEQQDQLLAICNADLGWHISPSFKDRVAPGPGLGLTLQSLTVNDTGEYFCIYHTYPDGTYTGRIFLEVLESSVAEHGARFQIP

T3: human TIGIT on cells (human, UniProt Q495A1 22-244)
T3 sequence: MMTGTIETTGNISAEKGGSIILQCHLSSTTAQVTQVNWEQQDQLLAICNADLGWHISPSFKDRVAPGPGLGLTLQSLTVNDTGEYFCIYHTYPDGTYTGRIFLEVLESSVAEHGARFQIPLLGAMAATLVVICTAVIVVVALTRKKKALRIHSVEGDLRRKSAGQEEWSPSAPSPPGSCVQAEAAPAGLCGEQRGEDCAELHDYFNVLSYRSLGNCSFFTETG


How the values were obtained:
[1] = biological target: T1, human TIGIT (soluble, SPR; construct …); assay: SPR
[2] = biological target: T2, recombinant human TIGIT (rhTIGIT/Fc); assay: SPR, mAb captured on anti-kappa chip, rhTIGIT/Fc analyte
Description: Binding of anti-huTIGIT antibodies to soluble human TIGIT was determined by BIACORE® surface plasmon resonance (SPR) analysis. […] The capture concentration of the mAb/volume was 2-40 μg/mL (5 μL at 10 μL/min). The antigen association time was 5 minutes at 15 μL/min, the antigen dissociation time was 6 minutes, and regeneration was performed with 50 mM HCl/50 mM NaOH (12 μL each at 100 μL/min).

cynomolgus monkey TIGIT = biological target: T4, cynomolgus monkey TIGIT (cynomolgus monkey); assay: SPR
T4 construct: also called cyno TIGIT

[3] = biological target: T1, human TIGIT (soluble, SPR; construct …); assay: SPR; remark: listed apart in the source
[4] = biological target: T1, human TIGIT (soluble, SPR; construct …); assay: SPR, full titration curves, subcloned and purified antibody
human TIGIT on cells = biological target: T3, human TIGIT on cells; assay: cell-based or functional assay

Kd [1] | koff [1] | kon [1] | Kd [2] | koff [2] | kon [2] | Kd (cynomolgus monkey TIGIT) | Kd [3] | Kd [4] | Bioassay of Jurkat/hTIGIT cells, block of PVR signaling, IC50 (human TIGIT on cells) | Binder
0.08 nM | 0.00016 s⁻¹ | 2e+06 M⁻¹ s⁻¹ |  |  |  |  |  |  |  | 22G2 H3Q IgG1.1f (antibody, kappa constant tied to the 22G2 light chain only by claim 4; also called 22G2 VH domain H3Q, isotype IgG1.1f) heavy: QVQLQESGPGLVKPSETLSLTCTVSGGSVSSGIYYWSWIRQPPGKGLEWIGYIYYSGSTNYNPSLKSRVTISVDTSKNQFSLKLSSVTAADTAVYYCARDYYVSGNYYNVDYYFFGVDVWGQGTTVTVSSASTKGPSVFPLAPSSKSTSGGTAALGCLVKDYFPEPVTVSWNSGALTSGVHTFPAVLQSSGLYSLSSVVTVPSSSLGTQTYICNVNHKPSNTKVDKRVEPKSCDKTHTCPPCPAPEAEGAPSVFLFPPKPKDTLMISRTPEVTCVVVDVSHEDPEVKFNWYVDGVEVHNAKTKPREEQYNSTYRVVSVLTVLHQDWLNGKEYKCKVSNKALPSSIEKTISKAKGQPREPQVYTLPPSREEMTKNQVSLTCLVKGFYPSDIAVEWESNGQPENNYKTTPPVLDSDGSFFLYSKLTVDKSRWQQGNVFSCSVMHEALHNHYTQKSLSLSPG light: not shown
 |  |  | 38.1 nM | 0.00651 s⁻¹ | 171000 M⁻¹ s⁻¹ |  |  |  |  | 10D7 (antibody, V domains shown, fully human mAb from KM mouse hybridoma; also called anti-huTIGIT mAb 10D7) VH: QGQLVQSGAEVKKPGSSVKVSCKASGGIFRNYAISWVRQAPGQGLEWMGGIIPFFGTANYAQKFQGRVTITADESTSTAYMELSSLRSEDTAVYYCARGGAAAGTTRYGYYYYGMDVWGQGTTVTVSS VL: DIQMTQSPSSLSASVGDRVTITCRASQGISSWLAWYQQKPEKAPKSLIYAASSLQSGVPSRFSGSGSGTDFTLTISSLQPEDFATYYCQQYNSYPITFGQGTRLEIK
1.5 nM | 0.0016 s⁻¹ | 1.1e+06 M⁻¹ s⁻¹ |  |  |  |  |  |  |  | 15A6 IgG1.1f (antibody, kappa light chain) heavy: QLQLQESGPGLVKPSETLSLTCTVSGGSISSSRYFWGWIRQPPGKGLEWIGYIYYRGSTYYNPSLKSRVTIAVDTSKNQFSLKLSSVTAADTAVYYCASSSAWYFDYWGQGNLVTVSSASTKGPSVFPLAPSSKSTSGGTAALGCLVKDYFPEPVTVSWNSGALTSGVHTFPAVLQSSGLYSLSSVVTVPSSSLGTQTYICNVNHKPSNTKVDKRVEPKSCDKTHTCPPCPAPEAEGAPSVFLFPPKPKDTLMISRTPEVTCVVVDVSHEDPEVKFNWYVDGVEVHNAKTKPREEQYNSTYRVVSVLTVLHQDWLNGKEYKCKVSNKALPSSIEKTISKAKGQPREPQVYTLPPSREEMTKNQVSLTCLVKGFYPSDIAVEWESNGQPENNYKTTPPVLDSDGSFFLYSKLTVDKSRWQQGNVFSCSVMHEALHNHYTQKSLSLSPG VL: not shown
1.7 nM | 0.0019 s⁻¹ | 1.1e+06 M⁻¹ s⁻¹ |  |  |  |  |  |  |  | 15A6 N112T IgG1.1f (antibody, kappa light chain; also called 15A6 VH domain N112T) heavy: QLQLQESGPGLVKPSETLSLTCTVSGGSISSSRYFWGWIRQPPGKGLEWIGYIYYRGSTYYNPSLKSRVTIAVDTSKNQFSLKLSSVTAADTAVYYCASSSAWYFDYWGQGTLVTVSSASTKGPSVFPLAPSSKSTSGGTAALGCLVKDYFPEPVTVSWNSGALTSGVHTFPAVLQSSGLYSLSSVVTVPSSSLGTQTYICNVNHKPSNTKVDKRVEPKSCDKTHTCPPCPAPEAEGAPSVFLFPPKPKDTLMISRTPEVTCVVVDVSHEDPEVKFNWYVDGVEVHNAKTKPREEQYNSTYRVVSVLTVLHQDWLNGKEYKCKVSNKALPSSIEKTISKAKGQPREPQVYTLPPSREEMTKNQVSLTCLVKGFYPSDIAVEWESNGQPENNYKTTPPVLDSDGSFFLYSKLTVDKSRWQQGNVFSCSVMHEALHNHYTQKSLSLSPG VL: not shown
2 nM | 0.002 s⁻¹ | 1e+06 M⁻¹ s⁻¹ |  |  |  |  |  |  |  | 15A6 A72S & N112T IgG1.1f (antibody, kappa light chain; also called 15A6 VH domain A72S N112T) heavy: QLQLQESGPGLVKPSETLSLTCTVSGGSISSSRYFWGWIRQPPGKGLEWIGYIYYRGSTYYNPSLKSRVTISVDTSKNQFSLKLSSVTAADTAVYYCASSSAWYFDYWGQGTLVTVSSASTKGPSVFPLAPSSKSTSGGTAALGCLVKDYFPEPVTVSWNSGALTSGVHTFPAVLQSSGLYSLSSVVTVPSSSLGTQTYICNVNHKPSNTKVDKRVEPKSCDKTHTCPPCPAPEAEGAPSVFLFPPKPKDTLMISRTPEVTCVVVDVSHEDPEVKFNWYVDGVEVHNAKTKPREEQYNSTYRVVSVLTVLHQDWLNGKEYKCKVSNKALPSSIEKTISKAKGQPREPQVYTLPPSREEMTKNQVSLTCLVKGFYPSDIAVEWESNGQPENNYKTTPPVLDSDGSFFLYSKLTVDKSRWQQGNVFSCSVMHEALHNHYTQKSLSLSPG VL: not shown
1.5 nM | 0.0017 s⁻¹ | 1.1e+06 M⁻¹ s⁻¹ |  |  |  |  |  |  |  | 15A6 A72S IgG1.1f (antibody, kappa light chain; also called 15A6 VH domain A72S) heavy: QLQLQESGPGLVKPSETLSLTCTVSGGSISSSRYFWGWIRQPPGKGLEWIGYIYYRGSTYYNPSLKSRVTISVDTSKNQFSLKLSSVTAADTAVYYCASSSAWYFDYWGQGNLVTVSSASTKGPSVFPLAPSSKSTSGGTAALGCLVKDYFPEPVTVSWNSGALTSGVHTFPAVLQSSGLYSLSSVVTVPSSSLGTQTYICNVNHKPSNTKVDKRVEPKSCDKTHTCPPCPAPEAEGAPSVFLFPPKPKDTLMISRTPEVTCVVVDVSHEDPEVKFNWYVDGVEVHNAKTKPREEQYNSTYRVVSVLTVLHQDWLNGKEYKCKVSNKALPSSIEKTISKAKGQPREPQVYTLPPSREEMTKNQVSLTCLVKGFYPSDIAVEWESNGQPENNYKTTPPVLDSDGSFFLYSKLTVDKSRWQQGNVFSCSVMHEALHNHYTQKSLSLSPG VL: not shown
 |  |  | 0.17 nM | 0.000403 s⁻¹ | 2.37e+06 M⁻¹ s⁻¹ | 0.09 nM | 0.06 nM | 0.09 nM | 0.21 nM | 22G2 (antibody, V domains shown, fully human mAb from KM mouse hybridoma, kappa light chain; also called anti-huTIGIT mAb 22G2; antibody 22G2) VH: QVHLQESGPGLVKPSETLSLTCTVSGGSVSSGIYYWSWIRQPPGKGLEWIGYIYYSGSTNYNPSLKSRVTISVDTSKNQFSLKLSSVTAADTAVYYCARDYYVSGNYYNVDYYFFGVDVWGQGTTVTVSS VL: EIVLTQSPATLSLSPGERATLSCRASQSVSSYLAWYQQKPGQAPRLLIYDASNRATGIPARFSGSGSGTDFTLTISSLEPEDFAVYYCQQRSNWPPLFTFGPGTKVDIK
0.16 nM | 0.0003 s⁻¹ | 1.9e+06 M⁻¹ s⁻¹ |  |  |  |  |  |  |  | 22G2 H3Q IgG1 (antibody, isotype printed as IgG1 (perhaps IgG1f); kappa constant tied to the 22G2 light chain only by claim 4; also called 22G2 VH domain H3Q, isotype IgG1; not shown: human IgG1 constant region) heavy: QVQLQESGPGLVKPSETLSLTCTVSGGSVSSGIYYWSWIRQPPGKGLEWIGYIYYSGSTNYNPSLKSRVTISVDTSKNQFSLKLSSVTAADTAVYYCARDYYVSGNYYNVDYYFFGVDVWGQGTTVTVSS light: not shown
 |  |  | 19.9 nM | 0.00404 s⁻¹ | 202000 M⁻¹ s⁻¹ |  |  | 1.5 nM |  | 15A6 (antibody, V domains shown, fully human mAb from KM mouse hybridoma, kappa light chain; also called anti-huTIGIT mAb 15A6) VH: QLQLQESGPGLVKPSETLSLTCTVSGGSISSSRYFWGWIRQPPGKGLEWIGYIYYRGSTYYNPSLKSRVTIAVDTSKNQFSLKLSSVTAADTAVYYCASSSAWYFDYWGQGNLVTVSS VL: not shown
 |  |  | 28.7 nM | 0.00144 s⁻¹ | 50300 M⁻¹ s⁻¹ |  |  |  |  | 11G11 (antibody, V domains shown, fully human mAb from KM mouse hybridoma; also called anti-huTIGIT mAb 11G11) VH: QLQLQESGPGLVKPSETLSLTCTVSGGSISSSSHYWGWIRQPPGKGLEWIGNIFYSGHTYYNPSLKSRVTISVDTSKNQFSLKLSSVTAADTAVYYCARQGLLWFGGLSPYYFDYWGQGTLVTVSS VL: EIVLTQSPATLSLSPGERATLSCRASQSVSSYLAWYQQKPGQAPRLLIYDASNRATGIPARFSGSGSGTDFTLTISSLEPEDFAVYYCQQRSNWPTFGQGTKLEIK
